In patent publication US20040047860A1 (published 2004):

Experiments:
[1] = molecular target: recombinant human MCP-1 (human) (UniProt P13500); assay: BIAcore, 5 nM chemokine over ABN912, bound amount after 8 min
MCP-1 mutant K49A = molecular target: T1, MCP-1 mutant K49A (human, UniProt P13500 24-99); assay: BIAcore, mutant MCP-1 (0.75 to 4 nM) over ABN912 captured on anti-Fcγ
T1 construct: also called K49 to alanine

Rec mouse JE/MCP-1 = molecular target: T2, Rec mouse JE/MCP-1 (mouse, UniProt P10148 24-96, limits assumed); assay: BIAcore, 5 nM chemokine over ABN912, bound amount after 8 min, n = 3
T2 construct: also called mouse MCP-1
T2 sequence (P10148 24-96 limits assumed): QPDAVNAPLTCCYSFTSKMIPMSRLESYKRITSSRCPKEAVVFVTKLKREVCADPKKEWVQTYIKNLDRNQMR

Rec rat MCP-1 = Rec rat MCP-1 (rat, UniProt P14844 24-148, limits assumed); assay: as above
Chain of Rec rat MCP-1 (P14844 24-148 limits assumed): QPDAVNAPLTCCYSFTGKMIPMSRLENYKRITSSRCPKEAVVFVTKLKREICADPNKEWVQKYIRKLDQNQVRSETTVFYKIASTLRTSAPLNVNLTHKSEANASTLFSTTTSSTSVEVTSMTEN

Rec guinea pig MCP-1 = Rec guinea pig MCP-1 (guinea pig, UniProt Q08782 24-120, limits assumed); assay: as above
Chain of Rec guinea pig MCP-1 (Q08782 24-120 limits assumed): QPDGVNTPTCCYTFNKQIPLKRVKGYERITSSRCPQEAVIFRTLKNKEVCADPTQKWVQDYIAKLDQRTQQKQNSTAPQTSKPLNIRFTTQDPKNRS

Rec rabbit MCP-1 = Rec rabbit MCP-1 (rabbit, UniProt P28292 24-125, limits assumed); assay: as above
Chain of Rec rabbit MCP-1 (P28292 24-125 limits assumed): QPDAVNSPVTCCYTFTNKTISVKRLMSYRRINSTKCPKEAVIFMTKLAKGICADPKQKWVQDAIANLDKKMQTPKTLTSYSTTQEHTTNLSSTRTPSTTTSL

Rec pig MCP-1 = Rec pig MCP-1 (pig, UniProt P42831 24-99); assay: as above
Chain of Rec pig MCP-1 (P42831 24-99 limits assumed): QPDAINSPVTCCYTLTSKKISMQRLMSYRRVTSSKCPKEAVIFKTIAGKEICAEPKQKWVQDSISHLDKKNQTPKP

Rec dog MCP-1 = Rec dog MCP-1 (dog, UniProt P52203 24-101); assay: as above
Chain of Rec dog MCP-1 (P52203 24-101 limits assumed): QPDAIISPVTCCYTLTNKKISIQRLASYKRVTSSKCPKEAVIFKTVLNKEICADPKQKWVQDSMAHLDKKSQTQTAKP

[2] = molecular target: recombinant human MCP-1 (human) (UniProt P13500); assay: BIAcore, ABN912 immobilised, recombinant human MCP-1 in solution, n = 30
[3] = molecular target: recombinant human MCP-1 (human) (UniProt P13500); assay: SPA, inhibition of (125-I)-MCP-1 binding to membranes of CCR2B expressing CHO cells (CHO#84), three independent experiments
rh MIP-1β = molecular target: T3, rh MIP-1β (human, UniProt P13236 24-92); assay: BIAcore, 5 nM chemokine over ABN912, bound amount after 8 min, n = 3
T3 sequence (looked up): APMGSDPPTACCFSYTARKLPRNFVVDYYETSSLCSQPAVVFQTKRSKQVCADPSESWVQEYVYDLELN

rh MCP-2 = molecular target: T4, rh MCP-2 (human, UniProt P80075 24-99); assay: as above
T4 sequence (looked up): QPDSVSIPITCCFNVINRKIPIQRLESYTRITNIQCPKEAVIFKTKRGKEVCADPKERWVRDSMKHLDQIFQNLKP

rh MCP-3 = rh MCP-3 (human, UniProt P80098 24-99); assay: as above
Chain of rh MCP-3 (P80098 24-99 limits assumed): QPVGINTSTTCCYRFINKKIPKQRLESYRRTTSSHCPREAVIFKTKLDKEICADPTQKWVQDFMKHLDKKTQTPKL

[4] = molecular target: T5, recombinant human eotaxin-1 (human, UniProt P51671 24-97); assay: as above
T5 construct: also called rh eotaxin
T5 sequence (P51671 24-97 limits assumed): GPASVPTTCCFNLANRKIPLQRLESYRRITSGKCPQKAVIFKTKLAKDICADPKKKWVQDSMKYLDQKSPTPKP

rh LEC = molecular target: T6, rh LEC (human, UniProt O15467 24-120); assay: as above
T6 sequence (looked up): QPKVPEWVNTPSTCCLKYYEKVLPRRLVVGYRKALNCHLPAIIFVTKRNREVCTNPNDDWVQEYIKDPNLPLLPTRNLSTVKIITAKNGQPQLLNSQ

rh MCP-4 = rh MCP-4 (human, UniProt Q99616 24-98); assay: as above
Chain of rh MCP-4 (Q99616 24-98 limits assumed): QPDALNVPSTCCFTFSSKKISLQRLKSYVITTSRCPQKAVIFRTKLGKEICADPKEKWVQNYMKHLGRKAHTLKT

rh MIP-1α = molecular target: T7, rh MIP-1α (human, UniProt P10147 27-92, limits assumed); assay: as above
T7 sequence (looked up): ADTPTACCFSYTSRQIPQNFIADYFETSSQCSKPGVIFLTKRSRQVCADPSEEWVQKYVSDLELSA

rh RANTES = molecular target: T8, rh RANTES (human, UniProt P13501 24-91); assay: as above
T8 sequence (looked up): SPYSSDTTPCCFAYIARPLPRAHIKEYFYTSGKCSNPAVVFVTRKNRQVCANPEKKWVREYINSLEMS

Chain of recombinant human MCP-1 (human) (P13500 24-99 limits assumed): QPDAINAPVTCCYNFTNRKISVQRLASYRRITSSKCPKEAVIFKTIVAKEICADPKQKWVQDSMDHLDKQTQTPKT
T1 sequence (P13500 24-99 K72A limits assumed): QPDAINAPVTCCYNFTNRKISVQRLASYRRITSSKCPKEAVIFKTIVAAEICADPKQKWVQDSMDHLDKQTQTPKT

B1: ABN912 antibody (human IgG4/κ anti-human MCP-1 antibody) (antibody, V domains shown)
VH: EVQLVQSGGGLVQPGGSLRLSCAASGFTFSHYWMSWVRQAPGKGLEWLANIEQDGSEKYYVDSVKGRFTISRDNAKNSLYLQMNSLRAEDTAVYFCARDLEGLHGDGYFDLWGRGTLVTVSS
VL: AIQLTQSPSSLSASVGDRVILTCRASQGVSSALAWYQQKPGKAPKLLIYDASSLESGVPSRFSGSGSGPDFTLTISSLQPEDFATYFCQQFNSYPLTFGGGTKVEIK
- Binding to ABN912 (percent compared to recombinant human MCP-1) [1]: 100%
- Percent binding of ABN912 (compared to recombinant human MCP-1) [1]: 100%
- fold decrease of affinity (against MCP-1) (MCP-1 mutant K49A): 133 fold
- Percent binding of ABN912 (compared to recombinant human MCP-1) (Rec mouse JE/MCP-1): -0.4%
- Percent binding of ABN912 (compared to recombinant human MCP-1) (Rec rat MCP-1): -0.2%
- Percent binding of ABN912 (compared to recombinant human MCP-1) (Rec guinea pig MCP-1): 2.3%
- Percent binding of ABN912 (compared to recombinant human MCP-1) (Rec rabbit MCP-1): 0.9%
- Percent binding of ABN912 (compared to recombinant human MCP-1) (Rec pig MCP-1): 0.5%
- Percent binding of ABN912 (compared to recombinant human MCP-1) (Rec dog MCP-1): 1.3%
- Kd [2]: 43 pM
- koff [2]: 0.0005 s⁻¹
- kon [2]: 1.3e+07 M⁻¹ s⁻¹
- IC50 [3]: 461 pM
- Binding to ABN912 (percent compared to recombinant human MCP-1) (rh MIP-1β): -2.9%
- Binding to ABN912 (percent compared to recombinant human MCP-1) (rh MCP-2): 6.2%
- Binding to ABN912 (percent compared to recombinant human MCP-1) (rh MCP-3): 4.3%
- Binding to ABN912 (percent compared to recombinant human MCP-1) [4]: 52.6%
- Binding to ABN912 (percent compared to recombinant human MCP-1) (rh LEC): -2.8%
- Binding to ABN912 (percent compared to recombinant human MCP-1) (rh MCP-4): -2.4%
- Binding to ABN912 (percent compared to recombinant human MCP-1) (rh MIP-1α): -2.8%
- Binding to ABN912 (percent compared to recombinant human MCP-1) (rh RANTES): -2.7%
